Source: the supplement of paper PMC10724198
± gives the standard deviation of the averaged measurements.

Each sequence was assayed on Saccharomyces cerevisiae (assay: protein stability index of tFT-peptide fusion (C-terminal peptide) (PSI (0-1 scale)); higher = more stable (slower turnover)). Conditions: genetic background: wild type; temperature: 30 C.
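Also: PSI is a weighted mean of sequencing reads over stability bins, variants kept only with over 10 reads, mCherry proximal and sfGFP distal, peptide attached via GGGS linker.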

Sequence | protein stability index
SDKVKRYISTTL | 0.637 ± 0.023
SDLPPCPSRPSP | 0.661 ± 0.11
SDQEIKKSQCGG | 0.659 ± 0.047
SDQPTWTAQTSN | 0.783 ± 0.025
SDRSLPGVPVRF | 0.7234 ± 0.0048
SDVRANAYRPEH | 0.688 ± 0.042
SEAHMGWRGGEK | 0.643 ± 0.1
SEDGPTPAPSTD | 0.71 ± 0.059
SEDLSNNMKQDI | 0.688 ± 0.026
SEEAQRKRNTLK | 0.6715 ± 0.0051
SEGLFSVLYIWM | 0.687 ± 0.16
SEGSRGYLLEIQ | 0.69 ± 0.029
SENEGEGIYVRM | 0.672 ± 0.065
SENKRKEHRMSF | 0.712 ± 0.05
SESLLSQPIVLV | 0.647 ± 0.017
SEVRGRERLAKC | 0.662 ± 0.041
SFATSELRAGNN | 0.701 ± 0.17
SFCGVLCIRACF | 0.623 ± 0.026
SFCSSVFWFFWL | 0.584 ± 0.037
SFCYFSCPSLIM | 0.718 ± 0.11
SFFFRSYCFPAP | 0.7169 ± 0.0037
SFFGPLADEIID | 0.73 ± 0.014
SFFGRVDSRSLP | 0.7184 ± 0.0025
SFGACSTSERIN | 0.666 ± 0.07
SFLPDCLSLFLF | 0.612 ± 0.058
SFLTPFLLSYAT | 0.636 ± 0.0038

Sequence | protein stability index
SFLWRRSYFVFR | 0.616 ± 0.017
SFPASSLPHSLL | 0.716 ± 0.043
SFPLPSPSPLLP | 0.712 ± 0.05
SFPPTSPTHFPL | 0.703 ± 0.031
SFPRSHPPPFPP | 0.674 ± 0.012
SFRDSFVNFGVF | 0.695 ± 0.045
SFSPEQITCNPY | 0.598 ± 0.037
SFTGSASYPKGR | 0.667 ± 0.0098
SFVLKAFLTRAV | 0.765 ± 0.23
SGAGRRRGGARE | 0.651 ± 0.031
SGCVARTRGLSG | 0.62 ± 0.018
SGDCRLPLPRSP | 0.711 ± 0.022
SGEEVRSVARFF | 0.629 ± 0.035
SGEVIRVTDWLV | 0.719 ± 0.038
SGGGGGKEAVVR | 0.646 ± 0.019
SGHGGAARRPAP | 0.733 ± 0.08
SGHSRCSPALPV | 0.7123 ± 0.002
SGKKERQKTEEE | 0.645 ± 0.1
SGKSSFLGAVWV | 0.711 ± 0.0061
SGLLGVSIHGLR | 0.654 ± 0.053
SGLRAFVVTLID | 0.673 ± 0.011
SGLRHACTPKSD | 0.671 ± 0.024
SGPRRECVPRSV | 0.682 ± 0.066
SGRGGTGIGERV | 0.6694 ± 0.00092
SGRGQQEENRRL | 0.7 ± 0.011
SGSDGLLVGAPG | 0.666 ± 0.047

Sequence | protein stability index
SGSGVGVVVSEV | 0.666 ± 0.049
SGSVRSCSNTCL | 0.6935 ± 0.0011
SGTQSGAFSRGQ | 0.642 ± 0.081
SGVGCGRSRWVW | 0.626 ± 0.029
SGVVGLSTSGVV | 0.695 ± 0.063
SGWSWLGLRSGL | 0.738 ± 0.025
SGYSTRPLSSRS | 0.723 ± 0.041
SHLSRSYPGLQL | 0.742 ± 0.027
SHPLLPPHLPPP | 0.682 ± 0.082
SHPPATMRAASV | 0.6646 ± 0.0043
SHRYFFLAFSGL | 0.655 ± 0.02
SHWCLQTQAACK | 0.65529 ± 0.00032
SILPRWEFKSLS | 0.802 ± 0.06
SILSRPERPLTN | 0.658 ± 0.044
SIPSIPTLHENT | 0.67593 ± 0.00066
SISVLSSSSLGF | 0.741 ± 0.12
SITYDRLLPHSS | 0.6594 ± 0.0063
SIVRKRPRTTAT | 0.682 ± 0.031
SIYNKNKKIKQK | 0.688 ± 0.07
SKDFLLILDPAK | 0.662 ± 0.021
SKEVVVEGKRQS | 0.715 ± 0.065
SKITENTKKKGK | 0.658 ± 0.019
SKKKITGGEAGH | 0.677 ± 0.046
SKLQGYRKLLST | 0.567 ± 0.0065
SKLVEIIMKLQG | 0.618 ± 0.055
SKPYNSAIKDIT | 0.725 ± 0.096

Sequence | protein stability index
SKRCNNNRNTSN | 0.69 ± 0.044
SKVLKSKSTGRG | 0.75 ± 0.11
SKVLRRLEPTIV | 0.603 ± 0.04
SKWGQIKRVAIR | 0.592 ± 0.038
SLAPLPARAPPL | 0.725 ± 0.018
SLCTAGCKNELW | 0.692 ± 0.076
SLDALVDFWSRG | 0.737 ± 0.066
SLDDWSAVFHVV | 0.542 ± 0.012
SLDFTERHALAC | 0.709 ± 0.031
SLDKCDKNNGGE | 0.733 ± 0.065
SLEWVGGRRWPI | 0.731 ± 0.014
SLFSLLVLPPPS | 0.706 ± 0.035
SLGCIPLVDFLR | 0.668 ± 0.0072
SLGFRSLGFDRV | 0.7195 ± 0.0024
SLGPPSLSARTN | 0.626 ± 0.045
SLICPPFWPPSF | 0.691 ± 0.044
SLILRKDKKKKK | 0.69 ± 0.01
SLIRSHKLKLFP | 0.732 ± 0.045
SLLDPLLPLLLF | 0.634 ± 0.017
SLLLALPSLPLS | 0.553 ± 0.18
SLLPILFPPPPF | 0.7147 ± 0.0046
SLLSCDETEFSS | 0.614 ± 0.051
SLLSLSPACLPL | 0.683 ± 0.026
SLLTSGSLTLFV | 0.71 ± 0.037
SLLVSRVVFRGN | 0.769 ± 0.12
SLPASTEPNVGT | 0.696 ± 0.034

Sequence | protein stability index
SLPFFPPRSPPS | 0.725 ± 0.11
SLPFLPPSAPLP | 0.76 ± 0.014
SLPLLPHLPASP | 0.698 ± 0.17
SLPLPPLPYSRT | 0.732 ± 0.083
SLPLPPPVRPLL | 0.689 ± 0.047
SLPPLPSPPCPP | 0.712 ± 0.044
SLPPPLPPPAPP | 0.614 ± 0.04
SLPPPPAPPPAI | 0.706 ± 0.086
SLPPPPARAAIL | 0.668 ± 0.07
SLPPPSPLPPPV | 0.558 ± 0.018
SLPRLRSCPSSF | 0.774 ± 0.18
SLPRPASYPPRF | 0.652 ± 0.079
SLPSHPLPDPSR | 0.67 ± 0.018
SLPYPFSLLPSL | 0.739 ± 0.03
SLRGIVFQSPSP | 0.737 ± 0.025
SLRNSFPPLSSP | 0.651 ± 0.07
SLRTREGSSRRE | 0.674 ± 0.23
SLSLHALPRPTT | 0.655 ± 0.029
SLSLPSSVIVGS | 0.624 ± 0.089
SLSLVSLSPSFS | 0.694 ± 0.0096
SLSLYSSTSLLP | 0.694 ± 0.064
SLSRLVGPLVSS | 0.611 ± 0.0066
SLSVMSAPLVGI | 0.636 ± 0.056
SLSVPYPPGLLP | 0.7119 ± 0.0022
SLSWIGLYCCGL | 0.717 ± 0.051
SLTGYAGESIRF | 0.774 ± 0.056

Sequence | protein stability index
SLVGFLPLWPSS | 0.64 ± 0.0085
SLVNDLFFLFFY | 0.523 ± 0.069
SLVTGRGFKVYR | 0.681 ± 0.05
SLVWVVSDLGCG | 0.778 ± 0.11
SLYQPLSPTPPE | 0.74 ± 0.064
SMCASRMPVCFS | 0.767 ± 0.18
SMGSGCTPSMVS | 0.654 ± 0.11
SMNCTSLRPGSF | 0.7065 ± 0.0015
SMSPAGARCLPR | 0.782 ± 0.05
SNAGRRRTNRIP | 0.682 ± 0.03
SNAIPGSHLCRS | 0.719 ± 0.093
SNFCIWRWWLGF | 0.6858 ± 0.0014
SNFKKRKERFGR | 0.7048 ± 0.0063
SNGFYVSRPIVY | 0.769 ± 0.017
SNGGCIMSNIYS | 0.758 ± 0.059
SNHPPLSFHTGR | 0.734 ± 0.0084
SNKATNEGNVNV | 0.68 ± 0.025
SNPKLPYSGTLE | 0.6685 ± 0.0015
SNVHDEVLWTRA | 0.704 ± 0.011
SPADALPLPGCG | 0.707 ± 0.05
SPAFPPPPGFPP | 0.69 ± 0.04
SPAKRLFRFPSS | 0.729 ± 0.05
SPALLAPPFSPS | 0.68455 ± 0.00067
SPAPSFLPLTPS | 0.656 ± 0.014
SPARLPPLPSLS | 0.734 ± 0.038
SPASPLDPSSSS | 0.712 ± 0.037

Sequence | protein stability index
SPFLINTIFDIT | 0.606 ± 0.038
SPGLLPPPTSAF | 0.71 ± 0.017
SPGPPLPSLTLP | 0.738 ± 0.065
SPGPVTPRPSLR | 0.669 ± 0.019
SPGSPLSPPAPP | 0.62 ± 0.04
SPHPRKTTSHPR | 0.6642 ± 0.0015
SPHTRPDPPPLP | 0.681 ± 0.071
SPKCIVASFVVS | 0.675 ± 0.028
SPLALATPLSDP | 0.699 ± 0.039
SPLASAVPFLIV | 0.633 ± 0.045
SPLPPPPPSSSS | 0.661 ± 0.016
SPLPPPPSRPPR | 0.794 ± 0.032
SPLPPTPPPISP | 0.6721 ± 0.00083
SPLYCGLSLPSV | 0.664 ± 0.027
SPNSCSVDYFAT | 0.61 ± 0.055
SPPESTFAFLRP | 0.706 ± 0.037
SPPFLLPFFPTP | 0.68 ± 0.043
SPPHASPPVLPW | 0.72 ± 0.028
SPPHLPPPLLST | 0.645 ± 0.06
SPPLPPPVPTAP | 0.7095 ± 0.0056
SPPLPPVLSRSH | 0.741 ± 0.043
SPPLSPPLPSRP | 0.7016 ± 0.0064
SPPLSRSPPPTL | 0.674 ± 0.039
SPPPFLCSPFVA | 0.684 ± 0.024
SPPPGHPPLVPN | 0.767 ± 0.013
SPPPHSARPPRP | 0.686 ± 0.012

Sequence | protein stability index
SPPPLPTAPPPL | 0.713 ± 0.066
SPPPPLLPHPTP | 0.723 ± 0.047
SPPPPPPARCPS | 0.592 ± 0.045
SPPPPPPPHSPD | 0.654 ± 0.071
SPPPPPPSPPLH | 0.727 ± 0.044
SPPPPPTSPPPY | 0.638 ± 0.0091
SPPPPRPRPCAI | 0.753 ± 0.12
SPPRSCLPRPPD | 0.676 ± 0.05
SPPRSPPTFPPC | 0.704 ± 0.063
SPPSFIVPSTSL | 0.69 ± 0.054
SPPSPASPPSSP | 0.741 ± 0.075
SPPSPPPSPPTL | 0.77 ± 0.092
SPPSPSPSPRPL | 0.669 ± 0.03
SPPVPLSPPLSP | 0.537 ± 0.023
SPRIDFLLPCSS | 0.647 ± 0.032
SPRLPLSRPLVV | 0.574 ± 0.0064
SPRLPPPRPLPS | 0.676 ± 0.057
SPRPSPPPPSHA | 0.636 ± 0.077
SPRRVAVAGETS | 0.68 ± 0.093
SPSLPHAPSRPP | 0.607 ± 0.06
